Data published in patent US20210032365A1 (Chugai, published 2021).

Tests used:
human C1s [1] = target: T1, human C1s (human, UniProt P09871 16-688); assay: SPR (Biacore T200, 37C), Ab captured on protein A/G; pH 5.8, 3 uM Ca
T1 construct: Analyte in the Biacore assays; also called hC1s; serum-derived human C1s (CompTech)
T1 sequence: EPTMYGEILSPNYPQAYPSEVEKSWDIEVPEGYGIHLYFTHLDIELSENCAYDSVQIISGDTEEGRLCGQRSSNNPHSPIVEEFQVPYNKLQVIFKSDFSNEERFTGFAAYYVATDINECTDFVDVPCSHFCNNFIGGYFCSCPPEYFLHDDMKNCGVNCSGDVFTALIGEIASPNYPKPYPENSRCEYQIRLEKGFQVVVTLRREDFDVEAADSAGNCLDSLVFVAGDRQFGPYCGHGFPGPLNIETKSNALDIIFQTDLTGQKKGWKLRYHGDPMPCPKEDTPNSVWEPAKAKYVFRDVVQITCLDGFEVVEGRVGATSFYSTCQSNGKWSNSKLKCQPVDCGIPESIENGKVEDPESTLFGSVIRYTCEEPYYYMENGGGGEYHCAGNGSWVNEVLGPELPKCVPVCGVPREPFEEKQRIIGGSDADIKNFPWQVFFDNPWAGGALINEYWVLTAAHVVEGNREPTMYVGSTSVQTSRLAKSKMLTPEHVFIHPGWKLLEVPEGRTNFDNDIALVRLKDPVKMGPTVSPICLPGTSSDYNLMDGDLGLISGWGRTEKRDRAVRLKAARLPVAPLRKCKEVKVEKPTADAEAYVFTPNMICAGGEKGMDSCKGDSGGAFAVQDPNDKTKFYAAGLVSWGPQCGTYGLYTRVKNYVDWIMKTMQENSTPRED
Procedure: (§1) All variants were transiently expressed and purified by the method described above. The binding affinity of each histidine-substituted variant at pH 7.4 and pH 5.8 was determined at 37 degrees C. using Biacore T200 instrument (GE Healthcare). Recombinant Protein A/G (Pierce) was immobilized onto all flow cells of a CM4 sensor chip using an amine coupling kit (GE Healthcare). Antibodies and analytes were prepared in 7(+) buffer (20 mM ACES, 150 mM NaCl, 1.2 mM CaCl2, 0.05% Tween 20, 0.005% NaN3, pH 7.4), 5(+) buffer (20 mM ACES, 150 mM NaCl, 1.2 mM CaCl2, 0.05% Tween 20, 0.005% NaN3, pH 5.8), or 5(−) buffer (20 mM ACES, 150 mM NaCl, 3 micro M CaCl2, 0.05% Tween 20, 0.005% NaN3, pH 5.8). Each antibody was captured onto the sensor surface by protein A/G. Antibody capture levels were aimed at 200 resonance unit (RU). Serum-derived human C1s (CompTech) or recombinant C1s prepared in EXAMPLE 1 was injected at 50 nM, followed by dissociation. The sensor surface was regenerated in each cycle with 10 mM Glycine-HCl, pH 1.5. […] The ratio of KD 5.8+ to KD 7.4+(“KD 5+/7+”) and that of KD 5.8− to KD 7.4+(“KD 5−/7+”) were calculated. When the KD 5+/7+ or KD 5−/7+ of a variant is larger than that of the parent antibody IPN009VH2-SG4GK/IPN009VK3-SK1, that variant is considered to be “pH”- or “pH and Ca”-dependent, respectively. When binding response in 5(+) buffer and/or in 5(−) buffer of a variant is much lower than that of IPN09VH2/IPN009VK3, that variant is also considered as “pH”- and/or “pH and Ca”-dependent. Therefore, such mutations are effective to generate “pH”- and/or “pH and Ca”-dependent antibody. To further enhance “pH” and/or “pH and Ca” dependency, a combination of histidine mutations was conducted. Antibodies with combinations of histidine mutations were evaluated using Biacore by the method described above.

human C1s [2] = target: T1, human C1s; assay: SPR; KD at pH 5.8 (1.2 mM Ca) over KD at pH 7.4 (1.2 mM Ca)
Procedure: as §1

human C1s [3] = target: T1, human C1s; assay: SPR (Biacore T200, 37C), Ab captured on protein A/G; pH 7.4, 1.2 mM Ca
Procedure: as §1

human C1s [4] = target: T1, human C1s; assay: SPR (Biacore T200, 37C), Ab captured on protein A/G; pH 7.4, 1.2 mM Ca; pH 7.4, 1.2 mM Ca
Procedure: All variants were transiently expressed and purified by the method described above. The binding affinity of each histidine-substituted variant at pH 7.4 and pH 5.8 was determined at 37 degrees C. using Biacore T200 instrument (GE Healthcare). Recombinant Protein A/G (Pierce) was immobilized onto all flow cells of a CM4 sensor chip using an amine coupling kit (GE Healthcare). Antibodies and analytes were prepared in 7(+) buffer (20 mM ACES, 150 mM NaCl, 1.2 mM CaCl2, 0.05% Tween 20, 0.005% NaN3, pH 7.4), 5(+) buffer (20 mM ACES, 150 mM NaCl, 1.2 mM CaCl2, 0.05% Tween 20, 0.005% NaN3, pH 5.8), or 5(−) buffer (20 mM ACES, 150 mM NaCl, 3 micro M CaCl2, 0.05% Tween 20, 0.005% NaN3, pH 5.8). Each antibody was captured onto the sensor surface by protein A/G. Antibody capture levels were aimed at 200 resonance unit (RU). Serum-derived human C1s (CompTech) or recombinant C1s prepared in EXAMPLE 1 was injected at 50 nM, followed by dissociation. The sensor surface was regenerated in each cycle with 10 mM Glycine-HCl, pH 1.5. […] The ratio of KD 5.8+ to KD 7.4+(“KD 5+/7+”) and that of KD 5.8− to KD 7.4+(“KD 5−/7+”) were calculated. […] Antibodies with combinations of histidine mutations were evaluated using Biacore by the method described above.

human C1s [5] = target: T1, human C1s; assay: SPR; KD at pH 5.8 (3 uM Ca) over KD at pH 7.4 (1.2 mM Ca)
Procedure: as §1

human C1s [6] = target: T1, human C1s; assay: SPR (Biacore T200, 37C), Ab captured on protein A/G; pH 5.8, 1.2 mM Ca
Procedure: as §1

human C1s [7] = target: T1, human C1s; assay: SPR (Biacore T200, 37C), Ab captured on protein A/G; pH 5.8, 1.2 mM Ca; pH 5.8, 1.2 mM Ca

koff (human C1s [1]): 0.00504 s⁻¹
kon (human C1s [1]): 485000 M⁻¹ s⁻¹
KD 5(+)/7(+) (human C1s [2]): 9.9
kon (human C1s [3]): 527000 M⁻¹ s⁻¹
koff (human C1s [4]): 0.00088 s⁻¹
KD 5(-)/7(+) (human C1s [5]): 6.23
koff (human C1s [6]): 0.0292 s⁻¹
kon (human C1s [7]): 1.77e+06 M⁻¹ s⁻¹
B1: C1_IPN92H0288-SG4GK/IPN93L0211-SK1 (antibody, human IgG4 S228P, kappa)
heavy: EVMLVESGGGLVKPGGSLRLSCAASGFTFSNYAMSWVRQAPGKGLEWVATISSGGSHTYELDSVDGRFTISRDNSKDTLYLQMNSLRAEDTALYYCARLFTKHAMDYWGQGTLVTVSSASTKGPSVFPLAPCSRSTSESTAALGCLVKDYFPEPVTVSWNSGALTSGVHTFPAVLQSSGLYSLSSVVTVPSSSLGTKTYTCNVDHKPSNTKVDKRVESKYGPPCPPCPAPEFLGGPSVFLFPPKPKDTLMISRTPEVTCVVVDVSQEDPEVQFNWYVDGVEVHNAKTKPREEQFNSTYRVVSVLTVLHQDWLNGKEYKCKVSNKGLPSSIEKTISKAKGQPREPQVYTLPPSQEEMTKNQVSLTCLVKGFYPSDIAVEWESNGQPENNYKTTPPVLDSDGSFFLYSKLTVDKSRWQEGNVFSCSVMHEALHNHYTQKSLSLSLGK
light: QIVLTQSPATLSLSPGERATLSCTASSEVSESYLHWYQQKPGKAPKLWIYSTSNLASGVPSRFSGSGSGTDYTLTISSLQPEDFATYYCHQYYRLHPITFGQGTKLEIKRTVAAPSVFIFPPSDEQLKSGTASVVCLLNNFYPREAKVQWKVDNALQSGNSQESVTEQDSKDSTYSLSSTLTLSKADYEKHKVYACEVTHQGLSSPVTKSFNRGEC
notes: also called IPN92H0288/IPN93L0211
